Laboratory results published in patent US20180217132, “MEASUREMENT METHOD AND MEASUREMENT DEVICE” (KYOCERA CORPORATION, published 2018).

Target: Hemoglobin A0 (HbA0) (UniProt P69905;P68871 P69905:2-142,P68871:2-147)
Assay: SPR; Biacore T200, HBS-P + 1 mM MgCl2 pH 7.4; method of Kd not explicitly stated
Settings: tags: none; denatured

Sequence of Hemoglobin A0 (HbA0) (P69905 2-142, chain 1 of 2): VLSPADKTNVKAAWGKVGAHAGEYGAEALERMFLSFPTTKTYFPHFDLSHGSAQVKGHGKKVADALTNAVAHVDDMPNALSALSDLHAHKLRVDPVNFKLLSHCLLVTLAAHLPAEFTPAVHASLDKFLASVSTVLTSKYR
Sequence of Hemoglobin A0 (HbA0) (P68871 2-147, chain 2 of 2): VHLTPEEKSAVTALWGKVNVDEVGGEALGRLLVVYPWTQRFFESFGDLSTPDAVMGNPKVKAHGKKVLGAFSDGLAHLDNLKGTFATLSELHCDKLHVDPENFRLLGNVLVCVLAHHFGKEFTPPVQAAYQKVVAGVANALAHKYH

B1: RNA aptamer A (ssRNA)
RNA: GGGAUAGGAUCCACAUCUACGUAUUACGGCAUUAUUAGGACCAAUGCUGAGUACGGCGCACAGCUUUUUUCACUGCAGACUUGACGAAGCUUAAAAAAAAAAAAAAAAAA
modifications: 2'-F at A and U
Kd: 160 nM
